Consider one molecule from patent publication US20020151590, “Compositions and methods for regulating circadian rhythyms” (published 2002).

For one series, the target named is CLOCK:BMAL1 heterodimer (Homo sapiens, UniProt O15516;O00327 O15516:1-846,O00327:1-626). Description: EMSA; 150 mM KCl, 20 mM Tris-HCl pH 7.6, 5 mM MgCl2, 200 ng poly(dI-dC), 4 C; RXRa/RARa with 9cisRA/tRA tested as inhibitors; gel result not shown in text. The settings on record: tags: reticulocyte lysate (TNT), CMX plasmids; label: 32P. The source says: (§1) A double-stranded [γ³²P]dATP-labeled consensus oligonucleotide, […] […] The samples were loaded directly onto 4% polyacrylamide-TBE gels to separate MOP4/CLOCK:BMAL1 bound DNA from free DNA. The gels were dried and analyzed on a PhosphorImager.

For series [1], the target named is MOP4 (NPAS2):BMAL1 heterodimer (Homo sapiens, UniProt Q99743;O00327 Q99743:1-824,O00327:1-626). Described as above. Particulars: tags: reticulocyte lysate (TNT), CMX plasmids; label: 32P.
Description: as §1

CLOCK:BMAL1 heterodimer, sequence (O15516 whole entry, chain 1 of 2): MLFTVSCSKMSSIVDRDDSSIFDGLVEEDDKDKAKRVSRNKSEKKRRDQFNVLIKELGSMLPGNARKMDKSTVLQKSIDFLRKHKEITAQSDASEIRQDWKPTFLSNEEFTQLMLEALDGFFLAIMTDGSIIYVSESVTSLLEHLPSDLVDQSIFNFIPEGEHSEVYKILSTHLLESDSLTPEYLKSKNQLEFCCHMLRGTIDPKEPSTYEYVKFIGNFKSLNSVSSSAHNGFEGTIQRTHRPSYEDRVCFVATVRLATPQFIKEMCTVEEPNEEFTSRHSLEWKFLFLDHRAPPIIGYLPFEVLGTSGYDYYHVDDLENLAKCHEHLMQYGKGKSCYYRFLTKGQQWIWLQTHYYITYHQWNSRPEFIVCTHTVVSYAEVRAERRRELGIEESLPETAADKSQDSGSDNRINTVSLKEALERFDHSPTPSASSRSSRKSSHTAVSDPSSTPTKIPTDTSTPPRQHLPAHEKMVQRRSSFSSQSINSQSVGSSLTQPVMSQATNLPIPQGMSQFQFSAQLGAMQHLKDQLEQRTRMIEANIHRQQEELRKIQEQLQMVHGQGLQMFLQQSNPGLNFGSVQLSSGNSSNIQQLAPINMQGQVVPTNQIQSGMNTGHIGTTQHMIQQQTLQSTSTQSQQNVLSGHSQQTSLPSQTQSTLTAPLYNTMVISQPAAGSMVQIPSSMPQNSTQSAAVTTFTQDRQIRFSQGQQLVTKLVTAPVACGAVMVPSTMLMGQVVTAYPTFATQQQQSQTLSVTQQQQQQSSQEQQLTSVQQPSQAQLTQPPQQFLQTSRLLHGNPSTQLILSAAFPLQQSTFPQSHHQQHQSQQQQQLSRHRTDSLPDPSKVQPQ
CLOCK:BMAL1 heterodimer, sequence (O00327 whole entry, chain 2 of 2): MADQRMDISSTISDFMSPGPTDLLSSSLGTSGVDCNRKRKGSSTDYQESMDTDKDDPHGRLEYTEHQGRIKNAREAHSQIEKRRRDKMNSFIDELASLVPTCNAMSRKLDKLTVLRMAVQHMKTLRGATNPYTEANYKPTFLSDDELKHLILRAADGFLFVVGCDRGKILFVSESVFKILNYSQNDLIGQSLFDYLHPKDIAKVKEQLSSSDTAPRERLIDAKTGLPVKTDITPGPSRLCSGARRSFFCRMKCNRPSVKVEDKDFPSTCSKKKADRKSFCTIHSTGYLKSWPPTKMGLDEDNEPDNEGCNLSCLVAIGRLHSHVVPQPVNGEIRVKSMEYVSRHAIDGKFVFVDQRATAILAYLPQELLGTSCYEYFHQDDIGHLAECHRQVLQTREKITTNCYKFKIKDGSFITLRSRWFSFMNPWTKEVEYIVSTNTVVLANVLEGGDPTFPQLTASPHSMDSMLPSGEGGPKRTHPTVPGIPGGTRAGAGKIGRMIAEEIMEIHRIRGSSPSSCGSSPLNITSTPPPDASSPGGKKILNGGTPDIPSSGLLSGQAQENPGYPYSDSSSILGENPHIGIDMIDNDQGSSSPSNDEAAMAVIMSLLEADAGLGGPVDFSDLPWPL
MOP4 (NPAS2):BMAL1 heterodimer, sequence (Q99743 whole entry, chain 1 of 2): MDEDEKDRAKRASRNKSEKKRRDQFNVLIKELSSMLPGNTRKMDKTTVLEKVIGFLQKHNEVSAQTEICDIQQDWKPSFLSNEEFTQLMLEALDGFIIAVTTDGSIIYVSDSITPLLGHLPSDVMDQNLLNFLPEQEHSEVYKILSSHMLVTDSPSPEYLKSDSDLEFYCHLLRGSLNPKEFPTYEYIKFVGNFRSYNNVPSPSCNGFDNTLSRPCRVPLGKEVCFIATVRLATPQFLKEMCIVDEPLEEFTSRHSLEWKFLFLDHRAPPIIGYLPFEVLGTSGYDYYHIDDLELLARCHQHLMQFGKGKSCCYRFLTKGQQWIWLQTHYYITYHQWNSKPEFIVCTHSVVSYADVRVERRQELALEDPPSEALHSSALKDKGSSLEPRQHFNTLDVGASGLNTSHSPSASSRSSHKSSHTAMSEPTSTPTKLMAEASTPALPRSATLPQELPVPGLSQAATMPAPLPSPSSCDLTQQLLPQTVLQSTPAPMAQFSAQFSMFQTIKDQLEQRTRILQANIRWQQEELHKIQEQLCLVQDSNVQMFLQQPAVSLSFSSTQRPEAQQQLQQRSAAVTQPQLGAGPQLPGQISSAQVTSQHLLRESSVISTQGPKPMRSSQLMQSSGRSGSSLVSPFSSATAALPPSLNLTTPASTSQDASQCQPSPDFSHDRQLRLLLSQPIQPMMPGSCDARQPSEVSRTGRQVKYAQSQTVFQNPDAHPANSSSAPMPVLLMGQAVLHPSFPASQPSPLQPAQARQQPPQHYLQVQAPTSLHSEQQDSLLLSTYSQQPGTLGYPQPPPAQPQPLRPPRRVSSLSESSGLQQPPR
MOP4 (NPAS2):BMAL1 heterodimer, sequence (O00327 whole entry, chain 2 of 2): as the sequence (O00327 whole entry, chain 2 of 2) above

B1: E-box consensus oligonucleotide (dsDNA)
DNA 1: GGGACACGTGACCC
DNA 2: GGGTCACGTGTCCC
B1: the binding result (with CLOCK:BMAL1 heterodimer; in series [1]) was “binds” in each case.
